This passage reports EC50 and Kd results from patent publication CN116472284A (UNIV CALIFORNIA, dated 2023).

Test [1] deals with T1, SARS-CoV-2 spike receptor binding domain (RBD) (SARS-CoV-2, UniProt P0DTC2 328-533).
Test [2] concerns the target T1, SARS-CoV-2 spike receptor binding …. As to the kind of experiment: SPR, biotinylated RBD on CAP chip. A general note: SPR reads the build-up and loss of mass on a sensor chip optically.

The term EC50 denotes the concentration at which the effect is half-maximal. High values mean a need for much substance, low ones an effect from little substance. A word on the Kd: it is the free concentration of one partner at which half of the binding sites on the other are occupied at equilibrium, for simple one-to-one binding. A higher Kd goes with lower affinity.

B1: Nb6 (VHH)
VHH: QVQLVESGGGLVQAGGSLRLSCAASGIIFGRNAMGWYRQAPGKERELVAGITRRGSITYYADSVKGRFTISRDNAKNTVYLQMNSLKPEDTAVYYCAADPASPAPGDYWGQGTQVTVSS
notes: also called AeroNab6; NbCOV6
Consider B1, for which the EC50 in test [1] turned out to be 190 nM. Besides, the dissociation constant (Kd) in test [2] is 41 nM.
